# Data as given in patent US20180371095A1 (published 2018).
# T1: HEK293 cells transfected with recombinant human VSIG3-eGFP (human, UniProt Q5DX21 23-431)
# T1 construct: whole, on cells; not shown: eGFP
# T1 sequence (looked up): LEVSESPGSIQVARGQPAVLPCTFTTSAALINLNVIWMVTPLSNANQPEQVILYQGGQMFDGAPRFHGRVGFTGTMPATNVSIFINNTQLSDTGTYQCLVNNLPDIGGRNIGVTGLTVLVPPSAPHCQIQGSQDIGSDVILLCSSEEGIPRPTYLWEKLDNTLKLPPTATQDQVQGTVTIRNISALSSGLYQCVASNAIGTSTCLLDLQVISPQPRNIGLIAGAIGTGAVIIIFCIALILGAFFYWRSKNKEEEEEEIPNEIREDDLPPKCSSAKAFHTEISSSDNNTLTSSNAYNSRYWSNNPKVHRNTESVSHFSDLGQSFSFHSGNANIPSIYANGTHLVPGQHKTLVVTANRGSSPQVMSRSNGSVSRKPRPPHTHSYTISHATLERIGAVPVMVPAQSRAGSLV
# B1: recombinant human Siglec-7 (rhSiglec-7)/Fc protein (Fc fusion, UniProt Q9Y286 19-357, looked up)
# chain: QKSNRKDYSLTMQSSVTVQEGMCVHVRCSFSYPVDSQTDSDPVHGYWFRAGNDISWKAPVATNNPAWAVQEETRDRFHLLGDPQTKNCTLSIRDARMSDAGRYFFRMEKGNIKWNYKYDQLSVNVTALTHRPNILIPGTLESGCFQNLTCSVPWACEQGTPPMISWMGTSVSPLHPSTTRSSVLTLIPQPQHHGTSLTCQVTLPGAGVTTNRTIQLNVSYPPQNLTVTVFQGEGTASTALGNSSSLSVLEGQSLRLVCAVDSNPPARLSWTWRSLTLYPSQPSNPLVLELQVHLGDEGEFTCRAQNSLGSQHVSLNLSLQQEYTGKMRPVSGVLLGAVG
# notes: also called Fc-tagged Siglec7 protein; human Siglec-7 Fc protein; not shown: human IgG Fc region
# Target: T1, HEK293 cells transfected with …
# Assay: flow cytometry, anti-Fc APC detection
binder,measurement,value
B1,binding result,no binding
